Assay results as given in US20250340636A1 (Memorial Sloan Kettering, published 2025).

Legend:
[1] = target: T1, soluble mouse L1CAM (monomer), His-tagged (mouse, UniProt P11627 20-1123, limits assumed); test: BLI, mouse against human L1CAM-His
T1 construct: read as mouse
Protocol: (§1) Cross-reactivity to Mouse L1CAM. Affinity to mouse L1CAM was measured by BLI using an Octet Red96e instrument. […] The data was prepared by reference well subtraction, and response curves were globally fit to a 1:1 Langmuir binding model.

[2] = target: T2, soluble cynomolgus monkey L1CAM, His-tagged, monomeric (cynomolgus monkey, UniProt A0A2K5URB5 20-1120); test: BLI, cynomolgus against human L1CAM-His
T2 construct: also called cyL1CAM protein; cynomolgus L1CAM-His
Protocol: (§2) Cross-reactivity to Cynomolgus Monkey L1CAM. Affinity to cynomolgus L1CAM was measured by BLI using an Octet Red96e instrument. […] The data was prepared by reference well subtraction, and response curves were globally fit to a 1:1 Langmuir binding model.

[3] = target: T2, soluble cynomolgus monkey L1CAM, …; test: summary table; soluble cynomolgus monkey L1CAM (monomer)
Protocol: as §2

[4] = target: T3, human L1CAM on cells (human, UniProt P32004 20-1257); test: summary table; binding to cells with endogenous L1CAM (MCF-7)
T3 construct: Overexpressed on stably transfected HEK293T cells or endogenous on MCF-7 and MDA-MB-231 cells; also called HEK293T-hL1CAM
Protocol: (§3) Binding to L1CAM on Cells. […] Cells were then incubated with an AlexaFluor 647 goat anti-human Fc secondary antibody. After washing, the stained cells were analyzed by flow cytometry.
(§4) The binding curves for each antibody and cell line normalized to secondary antibody only staining (MFI ratio) are shown in FIGS. 14A-14C. EC50 values were determined by non-linear regression (Table 70). […] It is possible that differences in the conformation and oligomerization of L1CAM, depending on the surface expression level, contributed to the binding pattern. […] An avidity effect due to high levels of L1CAM surface expression may have contributed to the strong binding observed in this experiment.

[5] = target: T3, human L1CAM on cells; test: flow cytometry, MCF-7 cells, AlexaFluor 647 anti-human Fc secondary
Protocol: as §3, §4

[6] = target: T3, human L1CAM on cells; test: flow cytometry, MDA-MB-231 cells, AlexaFluor 647 anti-human Fc secondary
Protocol: as §3, §4

[7] = target: T3, human L1CAM on cells; test: flow cytometry, HEK293T-hL1CAM cells, AlexaFluor 647 anti-human Fc secondary
Protocol: as §3, §4

[8] = target: T4, extracellular domain of human L1CAM (isoform 1) fused to a poly-histidine tag via its carboxy terminus (human, UniProt P32004 20-1120); test: BLI (Octet Red96e), His-tagged human L1CAM on Ni-NTA biosensors, mAb as analyte, 1:1 fit
T4 construct: Bought (Creative Biomart); also called L1CAM-His; huL1CAM protein
Protocol: Binding to L1CAM in Solution. Affinity to human L1CAM was measured by BLI using an Octet Red96e instrument. […] The data was prepared by reference well subtraction, and response curves were globally fit to a 1:1 Langmuir binding model.

[9] = target: T1, soluble mouse L1CAM (monomer), …; test: BLI (Octet Red96e), His-tagged mouse L1CAM on Ni-NTA biosensors, mAb as analyte, 1:1 fit
Protocol: as §1

[10] = target: T5, mouse L1CAM on transiently transfected HEK293FT cells (mouse, UniProt P11627 20-1260); test: flow cytometry, HEK293FT cells transiently transfected with mouse L1CAM (data not shown)
T5 construct: whole, on cells; also called mouse L1CAM on cells

[11] = target: T2, soluble cynomolgus monkey L1CAM, …; test: BLI (Octet Red96e), His-tagged cynomolgus L1CAM on Ni-NTA biosensors, mAb as analyte, 1:1 fit
Protocol: as §2

[12] = target: T1, soluble mouse L1CAM (monomer), …; test: summary table; soluble mouse protein (row printed as 'mouse CD40 (monomer)', read as mouse L1CAM)
Protocol: as §1

T4 sequence (P32004 20-1120): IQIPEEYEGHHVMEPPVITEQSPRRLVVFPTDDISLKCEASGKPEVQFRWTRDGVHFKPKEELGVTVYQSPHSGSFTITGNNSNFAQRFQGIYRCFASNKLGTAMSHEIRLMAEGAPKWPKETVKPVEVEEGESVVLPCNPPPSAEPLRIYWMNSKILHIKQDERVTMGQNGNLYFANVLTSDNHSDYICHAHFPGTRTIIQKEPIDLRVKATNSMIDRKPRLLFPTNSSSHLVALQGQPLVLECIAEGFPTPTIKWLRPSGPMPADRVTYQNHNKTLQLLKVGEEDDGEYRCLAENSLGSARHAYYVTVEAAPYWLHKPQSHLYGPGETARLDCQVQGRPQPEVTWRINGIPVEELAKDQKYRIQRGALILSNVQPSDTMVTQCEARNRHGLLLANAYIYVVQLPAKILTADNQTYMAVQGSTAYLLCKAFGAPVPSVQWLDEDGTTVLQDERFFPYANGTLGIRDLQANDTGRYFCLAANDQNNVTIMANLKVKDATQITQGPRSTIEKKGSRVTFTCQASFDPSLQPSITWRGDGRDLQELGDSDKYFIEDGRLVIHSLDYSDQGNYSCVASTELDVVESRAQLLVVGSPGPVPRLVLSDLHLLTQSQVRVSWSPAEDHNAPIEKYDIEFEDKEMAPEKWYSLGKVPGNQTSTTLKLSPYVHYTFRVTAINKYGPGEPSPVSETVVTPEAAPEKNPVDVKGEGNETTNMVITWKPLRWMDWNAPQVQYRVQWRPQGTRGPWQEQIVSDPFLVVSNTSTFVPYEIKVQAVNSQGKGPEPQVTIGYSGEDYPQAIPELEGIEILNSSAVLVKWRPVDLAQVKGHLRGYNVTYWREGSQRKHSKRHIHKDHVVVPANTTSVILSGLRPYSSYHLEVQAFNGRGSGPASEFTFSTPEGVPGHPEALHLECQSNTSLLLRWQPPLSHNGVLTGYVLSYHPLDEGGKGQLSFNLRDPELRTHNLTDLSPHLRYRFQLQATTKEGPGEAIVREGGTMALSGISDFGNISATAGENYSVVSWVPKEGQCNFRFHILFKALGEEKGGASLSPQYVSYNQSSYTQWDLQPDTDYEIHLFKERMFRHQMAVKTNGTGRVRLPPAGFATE
T1 sequence (P11627 20-1123 limits assumed): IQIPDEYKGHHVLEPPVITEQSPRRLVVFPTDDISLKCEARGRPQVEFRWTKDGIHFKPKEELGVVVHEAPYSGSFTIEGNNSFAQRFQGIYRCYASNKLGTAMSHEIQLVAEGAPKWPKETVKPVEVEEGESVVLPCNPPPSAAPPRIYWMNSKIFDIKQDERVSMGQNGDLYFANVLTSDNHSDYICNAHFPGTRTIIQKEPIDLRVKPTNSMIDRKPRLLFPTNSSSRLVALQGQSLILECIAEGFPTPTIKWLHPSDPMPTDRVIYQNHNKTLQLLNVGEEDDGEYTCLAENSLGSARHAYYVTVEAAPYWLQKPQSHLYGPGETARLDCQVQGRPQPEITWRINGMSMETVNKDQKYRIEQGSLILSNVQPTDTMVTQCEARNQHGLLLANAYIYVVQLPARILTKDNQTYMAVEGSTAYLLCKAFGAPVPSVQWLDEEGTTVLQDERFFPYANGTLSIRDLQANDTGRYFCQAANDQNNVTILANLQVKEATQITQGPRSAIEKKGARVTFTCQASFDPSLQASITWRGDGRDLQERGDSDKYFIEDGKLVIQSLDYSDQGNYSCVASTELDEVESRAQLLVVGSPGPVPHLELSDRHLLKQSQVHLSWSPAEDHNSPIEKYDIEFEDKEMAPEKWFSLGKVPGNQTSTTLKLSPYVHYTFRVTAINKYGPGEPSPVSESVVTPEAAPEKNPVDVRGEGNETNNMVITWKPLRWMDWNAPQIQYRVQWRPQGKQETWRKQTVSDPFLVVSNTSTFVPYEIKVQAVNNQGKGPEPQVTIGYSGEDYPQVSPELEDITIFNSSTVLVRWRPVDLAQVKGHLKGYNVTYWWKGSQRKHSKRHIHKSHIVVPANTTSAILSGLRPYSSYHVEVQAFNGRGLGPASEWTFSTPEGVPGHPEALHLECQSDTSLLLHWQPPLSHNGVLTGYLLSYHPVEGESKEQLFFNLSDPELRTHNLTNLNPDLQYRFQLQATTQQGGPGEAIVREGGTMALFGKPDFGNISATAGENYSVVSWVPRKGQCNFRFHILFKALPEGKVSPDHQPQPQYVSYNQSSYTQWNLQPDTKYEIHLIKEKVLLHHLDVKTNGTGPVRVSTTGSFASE
T3 sequence (P32004 20-1257): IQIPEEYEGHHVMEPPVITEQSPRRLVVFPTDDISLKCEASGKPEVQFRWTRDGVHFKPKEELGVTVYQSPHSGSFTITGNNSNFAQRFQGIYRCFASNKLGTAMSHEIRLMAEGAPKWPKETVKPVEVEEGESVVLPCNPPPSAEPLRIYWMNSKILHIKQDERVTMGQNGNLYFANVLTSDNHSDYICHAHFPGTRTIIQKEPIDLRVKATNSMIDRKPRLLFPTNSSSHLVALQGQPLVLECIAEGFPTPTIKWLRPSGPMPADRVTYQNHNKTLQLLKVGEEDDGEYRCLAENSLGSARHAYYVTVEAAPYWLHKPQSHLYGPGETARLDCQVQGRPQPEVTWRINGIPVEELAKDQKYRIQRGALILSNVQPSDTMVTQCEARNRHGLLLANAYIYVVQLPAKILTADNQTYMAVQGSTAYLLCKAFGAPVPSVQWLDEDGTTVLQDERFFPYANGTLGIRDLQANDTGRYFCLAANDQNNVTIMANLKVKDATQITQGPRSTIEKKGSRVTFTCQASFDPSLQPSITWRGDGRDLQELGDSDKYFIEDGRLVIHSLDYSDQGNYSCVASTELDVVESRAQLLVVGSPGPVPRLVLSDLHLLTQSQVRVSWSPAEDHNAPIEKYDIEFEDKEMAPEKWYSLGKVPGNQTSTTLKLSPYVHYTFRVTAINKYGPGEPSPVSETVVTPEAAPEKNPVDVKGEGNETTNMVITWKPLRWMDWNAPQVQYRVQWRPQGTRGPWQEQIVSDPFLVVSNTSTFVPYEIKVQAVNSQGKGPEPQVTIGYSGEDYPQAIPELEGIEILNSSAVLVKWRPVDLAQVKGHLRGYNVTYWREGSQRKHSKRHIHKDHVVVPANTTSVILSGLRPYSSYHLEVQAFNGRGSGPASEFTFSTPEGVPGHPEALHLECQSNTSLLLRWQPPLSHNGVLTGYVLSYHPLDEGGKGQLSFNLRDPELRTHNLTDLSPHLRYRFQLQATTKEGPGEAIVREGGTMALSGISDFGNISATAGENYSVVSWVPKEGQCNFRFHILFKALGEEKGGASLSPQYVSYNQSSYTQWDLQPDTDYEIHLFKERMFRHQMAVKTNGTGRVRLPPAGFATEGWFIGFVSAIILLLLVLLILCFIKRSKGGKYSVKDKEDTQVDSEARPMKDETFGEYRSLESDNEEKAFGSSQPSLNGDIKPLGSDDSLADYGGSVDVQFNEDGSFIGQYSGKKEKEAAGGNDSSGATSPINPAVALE
T5 sequence (P11627 20-1260): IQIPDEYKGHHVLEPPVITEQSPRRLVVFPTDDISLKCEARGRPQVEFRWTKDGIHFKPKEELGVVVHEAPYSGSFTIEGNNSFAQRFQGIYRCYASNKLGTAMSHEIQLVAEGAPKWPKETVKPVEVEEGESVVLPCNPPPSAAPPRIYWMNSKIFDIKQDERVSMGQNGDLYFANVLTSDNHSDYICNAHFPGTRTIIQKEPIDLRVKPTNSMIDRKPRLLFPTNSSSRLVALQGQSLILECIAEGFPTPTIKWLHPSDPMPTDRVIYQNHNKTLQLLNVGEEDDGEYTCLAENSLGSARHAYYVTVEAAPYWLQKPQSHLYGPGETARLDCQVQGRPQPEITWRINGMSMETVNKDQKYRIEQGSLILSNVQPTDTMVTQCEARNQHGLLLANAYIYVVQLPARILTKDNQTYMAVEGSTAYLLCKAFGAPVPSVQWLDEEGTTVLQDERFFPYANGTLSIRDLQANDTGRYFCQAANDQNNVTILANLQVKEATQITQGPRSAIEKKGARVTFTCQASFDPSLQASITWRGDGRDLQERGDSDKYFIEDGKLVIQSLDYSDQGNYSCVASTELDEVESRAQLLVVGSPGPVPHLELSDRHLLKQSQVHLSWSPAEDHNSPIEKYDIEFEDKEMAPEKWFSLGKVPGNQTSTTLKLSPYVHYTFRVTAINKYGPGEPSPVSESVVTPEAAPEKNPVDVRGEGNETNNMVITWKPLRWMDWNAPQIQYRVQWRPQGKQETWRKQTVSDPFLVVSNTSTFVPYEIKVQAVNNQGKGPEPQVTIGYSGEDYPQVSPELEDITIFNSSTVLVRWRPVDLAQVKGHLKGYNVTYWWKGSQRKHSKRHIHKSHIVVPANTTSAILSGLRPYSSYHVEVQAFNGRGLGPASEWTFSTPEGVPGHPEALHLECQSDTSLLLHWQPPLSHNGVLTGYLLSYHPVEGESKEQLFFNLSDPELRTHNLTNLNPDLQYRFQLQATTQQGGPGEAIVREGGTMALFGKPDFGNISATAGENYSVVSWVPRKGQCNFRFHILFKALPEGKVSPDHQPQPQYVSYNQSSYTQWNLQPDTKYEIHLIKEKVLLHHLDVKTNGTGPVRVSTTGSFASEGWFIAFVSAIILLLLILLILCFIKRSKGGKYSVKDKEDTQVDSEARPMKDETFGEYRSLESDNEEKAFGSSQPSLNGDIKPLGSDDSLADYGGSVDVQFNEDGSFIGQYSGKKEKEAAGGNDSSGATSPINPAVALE

B1: TDI-Y-005 (antibody, human IgG1, kappa, V domains shown)
VH: EVQMVESGGGLVQPGGSLRLSCAAPGFIFSSYNMNWVRQAPGKGLEWVSYISSSSSTTYYADSVKGRFTISRDNAKNSLYLQMNSLRDEDTAVYYCASLYSGYDYYYYYGMDVWGQGTTVTVSS
VL: DIVMTQTPLSSPVSLGQPASISCRSSQSLVHSDGNTYLSWLQQRPGQPPRVLIYKISKRFSGVPDRFSGSGAGTDFTLKISRVEAEDVGVYYCMQATQFPFTFGPGTKVDIKR
notes: Human IgG1, kappa; also called human 14A10 mAb; fully human 14A10 mAb
[1]
  fold difference of KD against human L1CAM: ≤ 8 fold
[2]
  fold difference of KD against human L1CAM: ≤ 3.3 fold
[3]
  Kd: 1.3 nM
  koff: 0.00012 s⁻¹
  kon: 93000 M⁻¹ s⁻¹
[4]
  EC50: 2.5 nM
[5]
  EC50: 2.5 nM
[6]
  EC50: 7.1 nM
[7]
  EC50: 2 nM
[8]
  Kd: 4.3 nM
  koff: 0.00014 s⁻¹
  kon: 33000 M⁻¹ s⁻¹
[9]
  Kd: 34 nM
  koff: 0.0011 s⁻¹
  kon: 31000 M⁻¹ s⁻¹
[10]
  EC50: 0.9 nM
[11]
  Kd: 1.3 nM
  koff: 0.00012 s⁻¹
  kon: 93000 M⁻¹ s⁻¹
[12]
  Kd: 34 nM
  koff: 0.0011 s⁻¹
  kon: 31000 M⁻¹ s⁻¹
